The text below walks through data of publication PMC6168860, “Dual Role of a Viral Polymerase in Viral Genome Replication and Particle Self-Assembly” (mBio, 2018).

To fix the notation:
B1: Pseudomonas phage Φ6 major capsid protein P1 (natural protein, UniProt P11126 1-769, looked up)
chain: MFNLKVKDLNGSARGLTQAFAIGELKNQLSVGALQLPLQFTRTFSASMTSELLWEVGKGNIDPVMYARLFFQYAQAGGALSVDELVNQFTEYHQSTACNPEIWRKLTAYITGSSNRAIKADAVGKVPPTAILEQLRTLAPSEHELFHHITTDFVCHVLSPLGFILPDAAYVYRVGRTATYPNFYALVDCVRASDLRRMLTALSSVDSKMLQATFKAKGALAPALISQHLANAATTAFERSRGNFDANAVVSSVLTILGRLWSPSTPKELDPSARLRNTNGIDQLRSNLALFIAYQDMVKQRGRAEVIFSDEELSSTIIPWFIEAMSEVSPFKLRPINETTSYIGQTSAIDHMGQPSHVVVYEDWQFAKEITAFTPVKLANNSNQRFLDVEPGISDRMSATLAPIGNTFAVSAFVKNRTAVYEAVSQRGTVNSNGAEMTLGFPSVVERDYALDRDPMVAIAALRTGIVDESLEARASNDLKRSMFNYYAAVMHYAVAHNPEVVVSEHQGVAAEQGSLYLVWNVRTELRIPVGYNAIEGGSIRTPEPLEAIAYNKPIQPSEVLQAKVLDLANHTTSIHIWPWHEASTEFAYEDAYSVTIRNKRYTAEVKEFELLGLGQRRERVRILKPTVAHAIIQMWYSWFVEDDRTLAAARRTSRDDAEKLAIDGRRMQNAVTLLRKIEMIGTTGIGASAVHLAQSRIVDQMAGRGLIDDSSDLHVGINRHRIRIWAGLAVLQMMGLLSRSEAEALTKVLGDSNALGMVVATTDIDPSL
notes: major capsid protein P1 of Pseudomonas phage Φ6, wild type; The shell holds 120 copies of P1 (60 asymmetric P1A/P1B dimers) by the introduction; In the recombinant PCs of a11 P1 was co-expressed from pLM687 in E. coli JM109; also called main structural P1 protein; P1 shell; source: E. coli JM109, P1P4 particles from plasmid pLM358, P1 purified as previously described

Data set [1] deals with the molecule itself. The data set can be described thus: co-sedimentation; in vitro self-assembly of purified P1 and P4 (120:72), no P2, no P7 (P1P4 reaction); room temperature, 90 min, 250 to 350 mM NaCl, 20 mM Tris pH 8.0, 6% PEG 4000, P1 about 0.2 mg/ml; rate-zonal centrifugation in 10% to 30% sucrose, light-scattering zones analysed by SDS-PAGE.
For data set [2], the target named is B1. The data set can be described thus: co-sedimentation; in vitro self-assembly of purified P1, P4 (120:72) and P2 or P2 variant at 10×P2 (P1:P2 120:120), no P7; room temperature, 90 min, 250 to 350 mM NaCl, 20 mM Tris pH 8.0, 6% PEG 4000; rate-zonal centrifugation in 10% to 30% sucrose, P2 copies per particle from SDS-PAGE. The settings on record: both partners purified.

With B1, in data set [1], the binding result was “binds”.

B2: Φ6 P2 surface mutant HER (histidine-tagged) (enzyme, Pseudomonas phage Φ6, UniProt P11124 1-665, looked up)
chain: MPRRAPAFPLSDIKAQMLFANNIKAQQASKRSFKEGAIETYEGLLSVDPRFLSFKNELSRYLTDHFPANVDEYGRVYGNGVRTNFFGMRHMNGFPMIPATWPLASNLKKRADADLADGPVSERDNLLFRAAVRLMFSDLEPVPLKIRKGSSTCIPYFSNDMGTKIEIAERALEKAEEAGNLMLQGKFDDAYQLHQMGGAYYVVYRAQSTDAITLDPKTGKFVSKDRMVADFEYAVTGGEQGSLFAASKDASRLKEQYGIDVPDGFFCERRRTAMGGPFALNAPIMAVAQPVRNKIYSKYAYTFHHTTRLNKEEKVKEWSLCVATDVSDHDTFWPGWLRDLICDELLNMGYAPWWVKLFETSLKLPVYVGAPAPEQGHTLLGDPSNPDLEVGLSSGQGATDLMGTLLMSITYLVMQLDHTAPHLNSRIKDMPSACRFLDSYWQGAQEIRQISKSDDAILGWTKGRALVGGHALFEMLKEGKVNPSPYMKISYEHGGAFLGDILLYDSRREPGSAIFVGNINSMLNNQFSPEYGVQSGVRDRSKRKRPFPGLAWASMKDTYGACPIYSDVLEAIERCWWNAFGESYRAYREDMLKRDTLELSRYVASMARQAGLAELTPIDLEVLADPNKLQYKWTEADVSANIHEVLMHGVSVEKTERFLRSVMPR
notes: RNA-dependent RNA polymerase P2 of Pseudomonas phage Φ6 with His443 to Ala, Glu444 to Gln and Arg470 to Ala, made from pEM33 (C-terminal hexahistidine tag); source: E. coli BL21(DE3), plasmid pXS29, purified as described for N-terminally histidine-tagged P2; not shown: His6, C-terminal, kept
For the molecule B2, the “copies of P2 variant per particle” value in data set [2] came to 6 copies per particle.

B3: Φ6 P2 surface mutant HERW (histidine-tagged) (enzyme, Pseudomonas phage Φ6, UniProt P11124 1-665, looked up)
chain: MPRRAPAFPLSDIKAQMLFANNIKAQQASKRSFKEGAIETYEGLLSVDPRFLSFKNELSRYLTDHFPANVDEYGRVYGNGVRTNFFGMRHMNGFPMIPATWPLASNLKKRADADLADGPVSERDNLLFRAAVRLMFSDLEPVPLKIRKGSSTCIPYFSNDMGTKIEIAERALEKAEEAGNLMLQGKFDDAYQLHQMGGAYYVVYRAQSTDAITLDPKTGKFVSKDRMVADFEYAVTGGEQGSLFAASKDASRLKEQYGIDVPDGFFCERRRTAMGGPFALNAPIMAVAQPVRNKIYSKYAYTFHHTTRLNKEEKVKEWSLCVATDVSDHDTFWPGWLRDLICDELLNMGYAPWWVKLFETSLKLPVYVGAPAPEQGHTLLGDPSNPDLEVGLSSGQGATDLMGTLLMSITYLVMQLDHTAPHLNSRIKDMPSACRFLDSYWQGAQEIRQISKSDDAILGWTKGRALVGGHALFEMLKEGKVNPSPYMKISYEHGGAFLGDILLYDSRREPGSAIFVGNINSMLNNQFSPEYGVQSGVRDRSKRKRPFPGLAWASMKDTYGACPIYSDVLEAIERCWANAFGESYRAYREDMLKRDTLELSRYVASMARQAGLAELTPIDLEVLADPNKLQYKWTEADVSANIHEVLMHGVSVEKTERFLRSVMPR
notes: source: E. coli BL21(DE3), plasmid pXS30, purified as described for N-terminally histidine-tagged P2; not shown: His6, C-terminal, kept
Turning to B3, the “copies of P2 variant per particle” value in data set [2] was 4 copies per particle.

B4: Φ6 P2 surface mutant W576A (histidine-tagged) (enzyme, Pseudomonas phage Φ6, UniProt P11124 1-665, looked up)
chain: MPRRAPAFPLSDIKAQMLFANNIKAQQASKRSFKEGAIETYEGLLSVDPRFLSFKNELSRYLTDHFPANVDEYGRVYGNGVRTNFFGMRHMNGFPMIPATWPLASNLKKRADADLADGPVSERDNLLFRAAVRLMFSDLEPVPLKIRKGSSTCIPYFSNDMGTKIEIAERALEKAEEAGNLMLQGKFDDAYQLHQMGGAYYVVYRAQSTDAITLDPKTGKFVSKDRMVADFEYAVTGGEQGSLFAASKDASRLKEQYGIDVPDGFFCERRRTAMGGPFALNAPIMAVAQPVRNKIYSKYAYTFHHTTRLNKEEKVKEWSLCVATDVSDHDTFWPGWLRDLICDELLNMGYAPWWVKLFETSLKLPVYVGAPAPEQGHTLLGDPSNPDLEVGLSSGQGATDLMGTLLMSITYLVMQLDHTAPHLNSRIKDMPSACRFLDSYWQGHEEIRQISKSDDAILGWTKGRALVGGHRLFEMLKEGKVNPSPYMKISYEHGGAFLGDILLYDSRREPGSAIFVGNINSMLNNQFSPEYGVQSGVRDRSKRKRPFPGLAWASMKDTYGACPIYSDVLEAIERCWANAFGESYRAYREDMLKRDTLELSRYVASMARQAGLAELTPIDLEVLADPNKLQYKWTEADVSANIHEVLMHGVSVEKTERFLRSVMPR
notes: RNA-dependent RNA polymerase P2 of Pseudomonas phage Φ6 with Trp576 to Ala, made from pEM33 (C-terminal hexahistidine tag); source: E. coli BL21(DE3), plasmid pXS28, purified as described for N-terminally histidine-tagged P2; not shown: His6, C-terminal, kept
In the case of B4, the “copies of P2 variant per particle” value in data set [2] stood at 12 copies per particle.
